Test [1] concerns the target Folate receptor alpha on cells (SKOV3, A1847, T47D, 293T, IOSE6) (human) (UniProt P15328). Put plainly: cell-based or functional assay.
Test [2] addresses biotin-labeled recombinant FRa protein (R&D Systems, Inc) (UniProt P15328). Put plainly: flow cytometry; transduced primary human T cells stained with biotin-labeled recombinant FRA protein, then SA-PE; plotted against CD8. A general note: Flow cytometry measures light scatter and fluorescence of single cells or particles in a stream.
For test [3], the target named is Recombinant mesothelin-extracellular domain protein on beads (UniProt Q13421). Put plainly: cell-based or functional assay.
The next test concerns the target CD19-BBZ CAR on T cells. Put plainly: flow cytometry; T cells one day after CD19-BBZ CAR mRNA electroporation, stained with anti-mouse IgG Fab antibody.

biotin-labeled recombinant FRa protein (R&D Systems, Inc), sequence (P15328 25-233 limits assumed): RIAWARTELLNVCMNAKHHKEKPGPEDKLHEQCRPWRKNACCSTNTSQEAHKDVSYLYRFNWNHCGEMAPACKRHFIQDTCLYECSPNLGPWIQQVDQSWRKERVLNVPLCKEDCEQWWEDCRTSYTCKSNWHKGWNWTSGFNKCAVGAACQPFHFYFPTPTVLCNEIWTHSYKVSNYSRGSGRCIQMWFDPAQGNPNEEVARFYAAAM
Recombinant mesothelin-extracellular domain protein on beads, sequence (Q13421 other isoform, or with tags, fused parts or gaps limits assumed): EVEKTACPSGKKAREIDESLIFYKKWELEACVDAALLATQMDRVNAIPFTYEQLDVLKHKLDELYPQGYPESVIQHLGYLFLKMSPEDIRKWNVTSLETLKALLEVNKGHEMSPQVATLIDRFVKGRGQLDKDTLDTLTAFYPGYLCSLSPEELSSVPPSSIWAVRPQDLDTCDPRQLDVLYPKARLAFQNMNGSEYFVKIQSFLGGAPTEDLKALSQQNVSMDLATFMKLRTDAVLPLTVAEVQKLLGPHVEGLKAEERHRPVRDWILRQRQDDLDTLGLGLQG
Folate receptor alpha on cells (SKOV3, A1847, T47D, 293T, IOSE6) (human), sequence (P15328 25-234, stated change not applied): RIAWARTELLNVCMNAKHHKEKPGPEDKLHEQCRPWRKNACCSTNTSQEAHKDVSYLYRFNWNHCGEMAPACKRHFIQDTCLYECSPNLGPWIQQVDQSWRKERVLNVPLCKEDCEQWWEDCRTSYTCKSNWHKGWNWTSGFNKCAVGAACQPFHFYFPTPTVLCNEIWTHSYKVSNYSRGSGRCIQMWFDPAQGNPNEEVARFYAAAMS

On to MOv19-27z CAR on human T cells, for which, in test [1], the surface CAR expression after exposure to SKOV3 cells was 1 % of T cells. In test [2], the percent of cells CD8+ and FRA CAR+ (upper right quadrant) turned out to be 41.2%; the percent of cells CD8- and FRA CAR+ (lower right quadrant) was determined as 31.3%.

Turning to “anti-mesothelin CAR (mesoCAR, SS1 BBZ) on wild-type mouse T cells”, the % IFN-γ cytokine-producing cells after 6 hours with coated beads (flow cytometry) in test [3] is 7%.

For the substance “anti-mouse IgG Fab antibody (detection reagent for the 19BBZ panel)”, the percent of cells in the CAR-positive gate with CD19-BBZ CAR on T cells amounted to 98.5.

The values are drawn from patent US20200283729A1.
